Results on one substance are retold here after article PMC9332396.

The experiment deals with His6-NbSWP12 recombinant protein (spore wall protein NbSWP12 of Nosema bombycis) (Nosema bombycis). As to the kind of experiment: non-reducing SDS-PAGE with Western blot; purified His6-NbSWP12 in non-reducing loading buffer (no SDS, no β-mercaptoethanol, not heated), 12% gel, blot with NbSWP12 antiserum.

As usually defined, the stoichiometry N is the number of molecules, sites or subunits per partner or assembly. In the case of “His6-NbSWP12 recombinant protein (spore wall protein NbSWP12 of Nosema bombycis) (natural protein)”, the stoichiometry N worked out at 2.
